Laboratory results: article PMC9482650, “Quantitative fragmentomics allow affinity mapping of interactomes” (Nature Communications, 2022)

T1: GRIP1_4, Q9Y3R0
T1 sequence (Q9Y3R0 467-571, limits assumed, looked up): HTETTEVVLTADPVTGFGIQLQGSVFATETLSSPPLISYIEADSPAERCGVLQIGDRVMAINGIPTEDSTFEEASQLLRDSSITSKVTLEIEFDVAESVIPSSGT

T2: SNTG2, Q9NY99
T2 sequence (Q9NY99 68-166, limits assumed, looked up): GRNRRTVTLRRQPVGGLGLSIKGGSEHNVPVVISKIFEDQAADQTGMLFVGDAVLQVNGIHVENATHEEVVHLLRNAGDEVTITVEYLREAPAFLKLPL

T3: LNX2_2, Q8N448
T3 sequence (Q8N448 334-432, limits assumed, looked up): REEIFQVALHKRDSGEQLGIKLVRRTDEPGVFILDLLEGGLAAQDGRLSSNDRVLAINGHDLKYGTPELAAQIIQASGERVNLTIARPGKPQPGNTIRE

T4: PDZD7_3, Q9H5P4
T4 sequence (Q9H5P4 857-944, limits assumed, looked up): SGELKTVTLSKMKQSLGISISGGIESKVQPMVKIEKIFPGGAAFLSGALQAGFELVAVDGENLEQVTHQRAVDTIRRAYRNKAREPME

T5: SHANK1, Q9Y566
T5 sequence (Q9Y566 658-767, limits assumed, looked up): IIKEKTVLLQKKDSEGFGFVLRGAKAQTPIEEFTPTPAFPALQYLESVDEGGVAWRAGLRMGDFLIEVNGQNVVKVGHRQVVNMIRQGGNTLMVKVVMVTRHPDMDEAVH

T6: MPP2, Q14168
T6 sequence (Q14168 180-250, limits assumed, looked up): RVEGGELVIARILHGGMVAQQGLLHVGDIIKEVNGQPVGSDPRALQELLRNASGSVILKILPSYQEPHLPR

T7: PTPN13_1, Q12923
T7 sequence (Q12923 1088-1188, limits assumed, looked up): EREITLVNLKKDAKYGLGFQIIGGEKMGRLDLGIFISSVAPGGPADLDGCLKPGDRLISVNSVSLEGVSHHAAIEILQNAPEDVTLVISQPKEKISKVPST

T8: PARD3B_1, Q8TEW8
T8 sequence (Q8TEW8 196-299, limits assumed, looked up): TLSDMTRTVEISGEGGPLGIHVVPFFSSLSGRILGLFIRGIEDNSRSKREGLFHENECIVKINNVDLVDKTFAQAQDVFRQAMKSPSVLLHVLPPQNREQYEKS

T9: DFNB31_1, Q9P202
T9 sequence (Q9P202 135-233, limits assumed, looked up): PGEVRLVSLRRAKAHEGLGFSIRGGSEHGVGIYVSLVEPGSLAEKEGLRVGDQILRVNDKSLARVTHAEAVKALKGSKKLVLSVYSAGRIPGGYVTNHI

T10: SIPA1L2, Q9P2F8
T10 sequence (Q9P2F8 945-1036, limits assumed, looked up): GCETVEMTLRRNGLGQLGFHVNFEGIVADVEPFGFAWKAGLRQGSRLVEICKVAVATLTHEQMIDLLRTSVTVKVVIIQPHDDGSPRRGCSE

T11: DLG3_3, Q92796
T11 sequence (Q92796 374-475, limits assumed, looked up): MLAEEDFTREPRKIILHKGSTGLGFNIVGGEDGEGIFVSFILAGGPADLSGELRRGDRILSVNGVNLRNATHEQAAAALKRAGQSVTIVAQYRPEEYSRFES


Assays:
Assay in all cases: holdup assay
Parameters in all cases: key: below the threshold = too weak to quantify, mostly under pKd 3.1 to 4
Details in all cases: plain residues with an end cap or a label only (N-terminal biotin on a linker: ado-ado)
FRMPD4, Q14CM0 = target: FRMPD4, Q14CM0
GRIP1_4, Q9Y3R0 = target: T1, GRIP1_4, Q9Y3R0
SNTG2, Q9NY99 = target: T2, SNTG2, Q9NY99
LDB3, O75112 = target: LDB3, O75112
MAGI1_1, Q96QZ7 = target: MAGI1_1, Q96QZ7
LNX2_2, Q8N448 = target: T3, LNX2_2, Q8N448
PDZD7_3, Q9H5P4 = target: T4, PDZD7_3, Q9H5P4
SHANK1, Q9Y566 = target: T5, SHANK1, Q9Y566
MPP2, Q14168 = target: T6, MPP2, Q14168
NHERF4_2, Q86UT5 = target: NHERF4_2, Q86UT5
IL16_1, Q14005 = target: IL16_1, Q14005
PTPN13_1, Q12923 = target: T7, PTPN13_1, Q12923
MAGI2_6, Q86UL8 = target: MAGI2_6, Q86UL8
PARD3B_1, Q8TEW8 = target: T8, PARD3B_1, Q8TEW8
LNX1_1, Q8TBB1 = target: LNX1_1, Q8TBB1
DFNB31_1, Q9P202 = target: T9, DFNB31_1, Q9P202
NHERF2_2, Q15599 = target: NHERF2_2, Q15599
SIPA1L2, Q9P2F8 = target: T10, SIPA1L2, Q9P2F8
NHERF4_1, Q86UT5-2 = target: NHERF4_1, Q86UT5-2
Inadl_9, Q8NI35 = target: Inadl_9, Q8NI35
CASK, O14936 = target: CASK, O14936
GRASP, Q7Z6J2 = target: GRASP, Q7Z6J2
SCRIB_3, Q14160 = target: SCRIB_3, Q14160
ARHGEF12, Q9NZN5-2 = target: ARHGEF12, Q9NZN5-2
DLG3_3, Q92796 = target: T11, DLG3_3, Q92796
GRID2IP_2, A4D2P6 = target: GRID2IP_2, A4D2P6
Sequence of GRID2IP_2, A4D2P6 (A4D2P6 272-370): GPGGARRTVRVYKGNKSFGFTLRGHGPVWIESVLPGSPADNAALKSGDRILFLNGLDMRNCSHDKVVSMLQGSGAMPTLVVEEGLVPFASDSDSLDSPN

Sequence of FRMPD4, Q14CM0 (Q14CM0 67-160): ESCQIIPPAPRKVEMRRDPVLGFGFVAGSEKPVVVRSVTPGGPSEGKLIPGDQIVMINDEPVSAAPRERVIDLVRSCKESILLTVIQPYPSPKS
Sequence of Inadl_9, Q8NI35 (Q8NI35 1530-1615): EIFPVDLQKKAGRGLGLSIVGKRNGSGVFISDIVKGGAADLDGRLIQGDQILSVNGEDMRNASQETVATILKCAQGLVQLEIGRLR
Sequence of MAGI2_6, Q86UL8 (Q86UL8 1141-1229): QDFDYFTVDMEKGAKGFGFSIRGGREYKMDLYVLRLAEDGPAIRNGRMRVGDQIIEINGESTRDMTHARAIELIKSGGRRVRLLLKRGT
Sequence of MAGI1_1, Q96QZ7 (Q96QZ7 1-106): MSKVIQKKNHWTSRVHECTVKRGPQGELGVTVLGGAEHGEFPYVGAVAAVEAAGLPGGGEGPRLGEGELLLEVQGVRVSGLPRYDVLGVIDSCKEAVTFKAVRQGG
Sequence of NHERF4_1, Q86UT5-2 (Q86UT5 other isoform, or with tags, fused parts or gaps): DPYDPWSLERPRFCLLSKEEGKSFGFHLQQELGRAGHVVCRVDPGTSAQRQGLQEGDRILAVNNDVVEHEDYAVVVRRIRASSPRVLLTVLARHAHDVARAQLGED
Sequence of LNX1_1, Q8TBB1 (Q8TBB1 261-371): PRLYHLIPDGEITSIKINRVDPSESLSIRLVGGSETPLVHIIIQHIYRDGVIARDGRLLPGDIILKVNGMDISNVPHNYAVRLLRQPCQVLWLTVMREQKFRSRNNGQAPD
Sequence of LDB3, O75112 (O75112 1-94): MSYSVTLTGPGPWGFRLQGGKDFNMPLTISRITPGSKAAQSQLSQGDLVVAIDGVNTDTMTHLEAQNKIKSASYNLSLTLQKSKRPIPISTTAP
Sequence of CASK, O14936 (O14936 487-570): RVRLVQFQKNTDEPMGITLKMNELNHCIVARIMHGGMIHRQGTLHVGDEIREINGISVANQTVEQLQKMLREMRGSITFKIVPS
Sequence of NHERF4_2, Q86UT5 (Q86UT5 220-308): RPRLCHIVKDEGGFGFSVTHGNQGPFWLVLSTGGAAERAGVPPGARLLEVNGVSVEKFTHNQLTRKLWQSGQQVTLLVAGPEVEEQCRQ
Sequence of SCRIB_3, Q14160 (Q14160 999-1103): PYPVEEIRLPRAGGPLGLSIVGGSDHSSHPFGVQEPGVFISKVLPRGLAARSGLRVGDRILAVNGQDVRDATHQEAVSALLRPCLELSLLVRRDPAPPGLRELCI
Sequence of NHERF2_2, Q15599 (Q15599 142-238): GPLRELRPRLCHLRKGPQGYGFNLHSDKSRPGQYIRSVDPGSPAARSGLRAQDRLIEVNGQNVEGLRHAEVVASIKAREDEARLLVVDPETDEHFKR
Sequence of GRASP, Q7Z6J2 (Q7Z6J2 96-193): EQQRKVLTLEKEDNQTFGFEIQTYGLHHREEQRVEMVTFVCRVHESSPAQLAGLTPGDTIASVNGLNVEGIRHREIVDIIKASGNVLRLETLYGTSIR
Sequence of IL16_1, Q14005 (Q14005 210-306): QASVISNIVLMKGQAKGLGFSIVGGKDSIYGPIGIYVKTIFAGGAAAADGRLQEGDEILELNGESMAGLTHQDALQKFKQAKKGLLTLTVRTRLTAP
Sequence of ARHGEF12, Q9NZN5-2 (Q9NZN5 other isoform, or with tags, fused parts or gaps): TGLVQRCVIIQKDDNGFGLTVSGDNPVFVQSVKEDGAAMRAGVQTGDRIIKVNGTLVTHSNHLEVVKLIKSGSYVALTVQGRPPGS

Binder | pKd (FRMPD4, Q14CM0) | pKd (GRIP1_4, Q9Y3R0) | pKd (SNTG2, Q9NY99) | pKd (LDB3, O75112) | pKd (MAGI1_1, Q96QZ7) | pKd (LNX2_2, Q8N448) | pKd (PDZD7_3, Q9H5P4) | pKd (SHANK1, Q9Y566) | pKd (MPP2, Q14168) | pKd (NHERF4_2, Q86UT5) | pKd (IL16_1, Q14005) | pKd (PTPN13_1, Q12923) | pKd (MAGI2_6, Q86UL8) | pKd (PARD3B_1, Q8TEW8) | pKd (LNX1_1, Q8TBB1) | pKd (DFNB31_1, Q9P202) | pKd (NHERF2_2, Q15599) | pKd (SIPA1L2, Q9P2F8) | pKd (NHERF4_1, Q86UT5-2) | pKd (Inadl_9, Q8NI35) | also measured
TSQESEDTYL [TBC1D10A, Q9BXI6] | 5.3 | below the threshold | below the threshold | below the threshold | below the threshold | below the threshold | 3.9 | 4.99 | below the threshold | below the threshold | below the threshold | below the threshold | 3.98 | 4.58 | below the threshold | 3.62 | 5.52 | below the threshold | 3.97 | 3.58 | pKd (CASK, O14936): below the threshold; pKd (GRASP, Q7Z6J2): below the threshold; pKd (SCRIB_3, Q14160): 4.16; pKd (ARHGEF12, Q9NZN5-2): 4.02; pKd (DLG3_3, Q92796): below the threshold; pKd (GRID2IP_2, A4D2P6): below the threshold
PEYLGLDVPV [ERBB2, P04626] | 4.39 | below the threshold | below the threshold | below the threshold | below the threshold | 3.96 | below the threshold | below the threshold | below the threshold | below the threshold | 3.65 | below the threshold | below the threshold | below the threshold | 3.58 | below the threshold | below the threshold | below the threshold | below the threshold | below the threshold | pKd (CASK, O14936): below the threshold; pKd (GRASP, Q7Z6J2): below the threshold; pKd (SCRIB_3, Q14160): below the threshold; pKd (ARHGEF12, Q9NZN5-2): below the threshold; pKd (DLG3_3, Q92796): below the threshold; pKd (GRID2IP_2, A4D2P6): below the threshold
DDENIRTSDV [PLEKHA2, Q9HB19] | below the threshold | below the threshold | 4.08 | below the threshold | below the threshold | below the threshold | 4.73 | below the threshold | below the threshold | below the threshold | 3.83 | below the threshold | 5.21 | below the threshold | 4.5 | below the threshold | below the threshold | below the threshold | below the threshold | below the threshold | pKd (CASK, O14936): below the threshold; pKd (GRASP, Q7Z6J2): 3.82; pKd (SCRIB_3, Q14160): 3.99; pKd (ARHGEF12, Q9NZN5-2): 4.25; pKd (DLG3_3, Q92796): below the threshold; pKd (GRID2IP_2, A4D2P6): 4.19
AKPSRISTVV [IQSEC2, Q5JU85] | below the threshold | below the threshold | below the threshold | below the threshold | below the threshold | 5.09 | 5.21 | 3.96 | below the threshold | below the threshold | below the threshold | below the threshold | below the threshold | below the threshold | 4.34 | below the threshold | below the threshold | below the threshold | 3.48 | below the threshold | pKd (CASK, O14936): below the threshold; pKd (GRASP, Q7Z6J2): 4.41; pKd (SCRIB_3, Q14160): 3.74; pKd (ARHGEF12, Q9NZN5-2): 4.75; pKd (DLG3_3, Q92796): 4.18; pKd (GRID2IP_2, A4D2P6): 3.77
